{"source": "patent US20080254496A1", "about": "“Methods for Detection of Fungal Disease” (priority 2005, published 2008)", "test": "D-arabinitol oxidase enzyme activity assay (H2O2 formation coupled to horse radish peroxidase/TMB, absorbance at 650 nm)", "type": "biochemical", "settings": "ratio of oxidase activity with sorbitol as substrate to DA as substrate; protein extracts from E. coli, 10 mM sugar alcohol, pH 6.5, 23° C.", "experimental": "The D-arabinitol oxidase enzyme activity is assayed by the formation of H2O2 during the enzyme reaction (FIG. 1) as coupled with a peroxidase indicator reaction that catalyzes the oxidation of 3,3′,5,5′-tetramethylbenzidine hydrochloride (TMB), producing a colored product. An increase in absorbance is a direct measure of D-arabinitol oxidase activity. Enzyme activity is assayed in crude extracts and in purified protein preparations. […] In this reaction, formation of H2O2 results in the formation of blue color measurable by reading the absorbance at 650 nanometers (nm). Absorbance at 650 nm is followed kinetically using a Tecan Rainbow spectrophotometer at room temperature (23° C.). Milli-absorbance units per minute (mA/min) are calculated as the increase in absorbance at 650 nm/minute×1000. It is recognized that researchers skilled in the art may perform the assay as an end-point assay, by stopping reactions at various times with a solution of acid to produce a yellow color, and reading the absorbance at 450 nm. […]\nDNA sequences encoding an SaOx protein (SEQ ID NO:3) are used as starting material for error prone PCR. Error-prone PCR is accomplished by performing PCR from DNA templates using a non-proof reading DNA polymerase such as Taq Polymerase, or by using a GeneMorph II Random Mutagenesis Kit (Stratagene). […]"}
{"molecule": "SaOX (wild type + His-tag): Streptomyces avermitilis oxidase (SEQ ID NO:4), wild type with C-terminal His-tag (STOP423LEHHHHHH) (protein, listed as Streptomyces avermitilis, C-terminal LEHHHHHH His-tag) MTDAGTALTNWAGNITYSAKELHRPQSLDALRALVADSAKVRVLGSGHSFNEIAEPGADGVLLSLTALPPSVEVDTAARTVRVAGGVRYAELARVVHGHGLALPNMASLPHISVAGSVATGTHGSGVTNGSLASAVREVELVTADGSAVRIGRGDDRFDGAVTALGALGVVTALTLDLEPDYRVAQQVFTELPLAGLDFDAVAASAYSVSLFTGWRTSGFAQVWLKRRTDRPSADFPWAAPATEAMHPVPGMPAVNCTQQFGVPGPWHERLPHFRAEFTPSSGAELQSEYLLPRPYALDALHALDAVRETVAPVLQICEVRTVAADAQWLSPAYGRDTVALHFTWVEDLAAVLPVVRRVEEALDPFDPRPHWGKVFAVPARVLRGRYPRLGDFRALVDSLDPGGKFTNAFVREVLGSGDRPS", "values": [{"measurement": "Sorb/DA", "value": 14.8}]}
